# Measurements taken from the DeepSol protein solubility set.
# Experiment: soluble on expression in E. coli; label from the status in PepcDB or PDB records
row,Sequence,soluble on expression in E. coli
1,MNLRSRLVNATERAVLFQIFKDVQNDPEKYDNAVEAICESIDYFGKFLTDSEYLTQIKPILDTQCPTKSIICFSKCLTKVSTDINTTTFRDVITMLDWLKYVVEKSLTSAICSSLKVKETDVSAVQLYREFASACSNIPEKVSNCCAKALSGEHVKYINTVKWIFKMNLVQGIQKAMLLAHDDIVTAAPFTSFYGSGGPYMKTVAEIISSGRNIDITNKDGLLVQMIEWIGSLNNFDSQWRRMMFLIFQEPTYQGIQVHESLLTTLFLISKSDQILKRCIEATDLTGTLKRVVMVKLPFQRVLKRKTIEILINFVYRTKEQFAIQLLETSVKIWSDLNYAKSAPESQERHIVRMILYLVHLFRTCSSIDWESLFLNSMDGVHCRMSMLPMYVQSGIFVNQALCKQATKHRSKTHGSDEQPPETLEENKFVSSEVGKIWFEEMTSILEHGFNSSTVKDSERVRETANEITKDDSGEEFEETNAQRLQNNKDSAAITSKNNLRLDSDDDEDFPDYQVNESEKIFKNLEIGEEPKNKVTPPAYIADAFEMLLEKEKYEVFEAAFFNITNLINRRPIGFPQIAEKLFIRILHLQNNFGTPKFKETVDEIAVACITQRPEIVPSVVRLIIAPGQGFSIKQRLLHYIHNAADGMGALDKKLEECVMAQQLRIGGPTLSIILHRTINTDYDDEDEDPHRLLVPEWRRMVDARIAANTRRIGTTREPPRAGVVNRLAQAAKYMFYPLLVLPRGENASLLGKDSDLLASLIMVASMVYVRCGVCPQIHRMSSELISYATPHRFSENAKLRTACIIAHLNVTTLLPGDLMDELFDVPALIGWFDWANSVLVNASSSQLEKDMTRQFGHSVTKHLQRYHPAVLQHQDV,not soluble
2,MNGGKETIDDMSLVVGMYGNYEVTKTGNLVGILEVSGINLDLLNETEQQDVFEDYGAFLMSTLGEGVDDTLQFLEPTIPVNMTTYLNGLKRRYLALQKDHPEQQFKIQLIASYLDHFTKVQESKNMTTKQHLLIVKVPIKDKSAESLNLAVAHLDEKIEQVKRDIENALTDFDVTAKILTSQEVQEILKNLINFNGLEHHHHHH,soluble
3,MLVVPARLHRWPPEVQDLFGREGPLVLEIGFGDGRFTAELARSRPDWLVLGAEVSAASVLRALRRMRREGLANVRLYHGQGPFALRNLVLPGTLDQVIVNFPDPWPKKRHQERRLLREAFFRRLSTRLKPGGSLLLTTDHEEYFRFALEEAERTGLYRVEVRPPPEAHLRTKYALKWKEAGRAFFHAAFIKLREDPAPWPPLRRYDVAHALLSGELPQDLALEKTPVRLKEGVAVFLEVARGKEGFYVLTHVEEEDLTQDLLLEVRKSARGVYAGVSRFGSPLITEAVKGAVRALVDRLEAHGLEVVQDHT,soluble
4,ATATAYVRSCDGASPPTPPGCGLKLVVDLTLDDSILTGSVLETEVMVTHALHESLFPRDAASDAAGTAATSLQVSLPPITVAMRRGAVQMRYGLTYLRTFPAALRDSVRVLKTAMSCDDGVTRCPSYMSMTGTLVSAPLGLCCLCTSVECALTSDLCNASMRAHFCFRTGAAGITCVQSEGITYHGWAVGSSSPYYMMHLSASGRGIAPTTLQLTTDAPEVQKGASALQILRASGVLPGESNPTVDISGRVLFVPSAEHSSASRSISTGPVRDDDPAEWLLLPAPLVSVSGNDCDKVGISPDYFYSLSSTKQCNAQKGTCVRHQLADYRAADLEQIAQGVGGRYIAASLGTFTRQAMREQEFLLDAVERTGGAMLRWTVNADGLVFQPLPVHGVLDAIKFDSSTGILYVTVRNNNTYGGLYYVAVGQCRGARASNCDSDGVTHECGRTALVAGANTSSLLQFSMVSDLPEEVGSTASCTVVFRDAAAALLASANISWTVEHTTTTPAPNAPKAEQCRRCAFRDLRCLFSTV,not soluble
